The target in this assay is His-tagged NET1ΔC (coated in ELISA) (not stated (chicken or mouse cDNA cloned)). Description: ELISA; NET1ΔC coated; serial dilutions of strep-tagged HSPGs (0.5–500 nM) in solution; detection with strep-HRP; apparent constants.

This is an account of results in PMC9984387, “The dynamic nature of netrin-1 and the structural basis for glycosaminoglycan fragment-induced filament formation” (Nature Communications, 2023).

In the case of “glypican-3 (AF185614 aa 25-557 R357A) (from UniProt Q8CFZ4 25-557) (domain or fragment)”, the Kd fell in the range of 10 to 20 nM.
